Here are results for 28 sequences from US20030059769.

A word on the Kd: it is the concentration at which binding is half-saturated. A word on the IC50: it is the midpoint of a concentration-inhibition curve. Low values mean greater potency in that assay, high ones weaker potency in that assay.

For data set [1], the target named is T1, L-selectin (LS-Rg) (Homo sapiens) (UniProt P14151).
T1 sequence: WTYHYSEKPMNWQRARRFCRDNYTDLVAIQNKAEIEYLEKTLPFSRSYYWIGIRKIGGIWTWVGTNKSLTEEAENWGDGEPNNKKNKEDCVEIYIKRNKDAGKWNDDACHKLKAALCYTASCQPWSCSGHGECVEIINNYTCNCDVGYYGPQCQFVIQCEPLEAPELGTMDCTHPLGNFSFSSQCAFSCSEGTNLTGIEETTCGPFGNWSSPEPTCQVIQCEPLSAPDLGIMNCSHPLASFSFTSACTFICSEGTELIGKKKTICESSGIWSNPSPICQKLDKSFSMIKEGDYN
Nature of the data set: filter.

The target in the next data set is CD22beta (CD22b-Rg) (UniProt P20273). Nature of the data set: filter.
For data set [2], the target named is T2, E-selectin (ES-Rg) (Homo sapiens) (UniProt P16581).
T2 sequence: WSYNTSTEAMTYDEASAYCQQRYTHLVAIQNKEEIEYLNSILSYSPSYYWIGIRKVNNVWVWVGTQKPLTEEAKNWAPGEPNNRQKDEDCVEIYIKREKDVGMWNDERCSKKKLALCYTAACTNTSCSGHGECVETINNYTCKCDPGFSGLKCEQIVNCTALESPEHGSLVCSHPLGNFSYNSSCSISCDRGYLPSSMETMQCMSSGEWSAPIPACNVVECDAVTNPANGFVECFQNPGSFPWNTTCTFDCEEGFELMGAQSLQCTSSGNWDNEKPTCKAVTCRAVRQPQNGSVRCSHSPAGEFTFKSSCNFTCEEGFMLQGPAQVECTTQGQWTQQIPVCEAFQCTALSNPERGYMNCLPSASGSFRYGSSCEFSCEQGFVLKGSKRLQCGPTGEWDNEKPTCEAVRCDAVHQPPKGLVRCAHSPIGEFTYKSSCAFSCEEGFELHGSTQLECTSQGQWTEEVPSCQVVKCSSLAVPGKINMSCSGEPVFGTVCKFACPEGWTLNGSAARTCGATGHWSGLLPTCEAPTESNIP
Nature of the data set: filter.

The target in data set [3] is T3, P-selectin (PS-Rg) (Homo sapiens) (UniProt P16109).
T3 sequence: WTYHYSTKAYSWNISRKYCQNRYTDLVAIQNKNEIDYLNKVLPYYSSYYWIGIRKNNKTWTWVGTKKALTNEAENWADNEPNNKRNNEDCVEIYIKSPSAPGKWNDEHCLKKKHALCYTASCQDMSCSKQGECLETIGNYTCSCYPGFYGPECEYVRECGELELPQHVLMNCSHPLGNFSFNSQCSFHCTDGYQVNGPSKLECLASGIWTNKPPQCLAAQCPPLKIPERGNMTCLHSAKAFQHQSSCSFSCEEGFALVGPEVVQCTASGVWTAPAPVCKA
Put plainly: filter.

Data set [4] concerns the target T4, Wheat germ agglutinin (WGA) (Triticum vulgare) (UniProt P10968).
T4 sequence: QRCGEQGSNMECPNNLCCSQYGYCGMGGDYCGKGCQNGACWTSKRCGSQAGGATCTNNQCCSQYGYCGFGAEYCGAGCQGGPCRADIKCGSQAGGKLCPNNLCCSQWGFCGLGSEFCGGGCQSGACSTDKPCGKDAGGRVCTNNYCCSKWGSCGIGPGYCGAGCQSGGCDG
Put plainly: filter.

For data set [5], the system named is Datura stramonium lectin (Datura stramonium). Put plainly: filter.
In data set [6] the target is T5, soluble L-selectin (Homo sapiens) (UniProt P14151).
T5 sequence: T1 sequence
Nature of the data set: filter. Conditions: 2'-F C and U, 37 C.

Data set [7] has as its target T6, L-selectin on PBMC / lymphocytes (Homo sapiens) (UniProt P14151).
T6 sequence: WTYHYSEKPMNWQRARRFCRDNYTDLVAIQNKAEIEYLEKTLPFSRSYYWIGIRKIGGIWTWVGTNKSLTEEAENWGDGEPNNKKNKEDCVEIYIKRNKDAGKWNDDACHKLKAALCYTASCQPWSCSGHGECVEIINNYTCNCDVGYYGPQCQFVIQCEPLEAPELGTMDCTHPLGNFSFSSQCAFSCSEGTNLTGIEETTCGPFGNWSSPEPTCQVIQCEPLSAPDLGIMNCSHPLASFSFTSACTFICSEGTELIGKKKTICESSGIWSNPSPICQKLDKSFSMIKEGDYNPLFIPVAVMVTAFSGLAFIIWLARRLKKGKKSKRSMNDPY
Conditions: 2'-NH2 on all C and U; PBMC binding on ice; competed by DREG-56.

Data set [8] addresses T1, L-selectin (LS-Rg) (Homo sapiens). Put plainly: inhibition. As to conditions: 2'-NH2 C and U; sialyl-LewisX competition ELISA. On the technique in general: An ELISA detects its analyte on a solid surface through an enzyme-linked reagent.
Where [9] appears, read: 2'-NH2 C and U, <5% bound at 1 uM.
The mark [10] stands for this setting: 2'-NH2 C and U, HBSS, room temperature.
[11] abbreviates: 2'-NH2 on all C and U, 4 C, HSMC.

Turning to “CTACCTACGATCTGACTAGCCGAGGATCTGATACTTATTGAACATAMCCGCACNCAGGCTTGCTTACTCTCATGTAGTTCC [LD102]”, the Kd in data set [1] (37 C) amounted to 7.9 nM.
For the sequence “CTACCTACGATCTGACTAGCCGAGGTAGTCGTTATAGGGTRCRCACGACACAAARCRGTRGCTTACTCTCATGTAGTTCC [LD127]”, the Kd with CD22beta (CD22b-Rg) (<1% at 700 nM) is above 100 µM; in data set [2] (room temperature), 1.3 µM; in data set [1] (room temp, 890 pM at 37 C), 1 nM; in data set [3] (room temperature), 780 nM; in data set [4] (<3% at […]), above 100 µM.
The sequence “GGGAAAAGCGAAUCAUACACAAGAAAGGGAUGGGAUUGGGACGAGCGGCCAAGACUCGGCGGGAACGAAGGGUCCGCUCCGCCAGAGACCAACCGAGAA [WGA ligand 6.8]” had a Kd in data set [5] (setting [9]) above 20 µM.
For “GGGAAAAGCGAAUCAUACACAAGACAGCGGCGGAGUCAGUGAAAGCGUGGGGGGYGCGGGAGGUCUACCCUGACGCUCCGCCAGAGACCAACCGAGAA [WGA ligand 6.14]”, in data set [4] (2'-NH2 on all C and U, <5% bound at 1 uM WGA, estimate), the equilibrium dissociation constant (Kd) is above 20 µM.
Turning to “GGGAAAAGCGAAUCAUACACAAGACGGCUGUGUGGUGUUGGAGCGUCAUAGUAGGAGUCGUCACGAACCAAGGCGCUCCGCCAGAGACCAACCGAGAA [WGA ligand 11.24]”, the equilibrium dissociation constant (Kd) in data set [5] (setting [9]) is above 20 µM.
On to “GGGAAAAGCGAAUCAUACACAAGACUGGCAAGRAGUGCGUGAGGGUACGUUAGGGGUGUUUGGGCCGAUCGCAUGCUCCGCCAGAGACCAACCGAGAA [WGA ligand 11.7]”, for which, in [4] (2'-NH2 on all C and U, HBSS, room temperature), the dissociation constant (Kd) is 0.016 µM.
The sequence “GGGAAAAGCGAAUCAUACACAAGAGAGGUGRAUGGGAGAGUGGAGCCCGGGUGACUCGAGGAUUCCCGUGCUCCGCCAGAGACCAACCGAGAA [WGA ligand 11.3]” came in with a dissociation constant Kd in data set [4] (setting [10]) of 0.41 µM.
On to “GGGAAAAGCGAAUCAUACACAAGAGUAGGAGGUUCCAUCACCAGGACUCGGCGGGAACGGAAGGUGAUGSGCUCCGCCAGAGACCAACCGAGAA [WGA ligand 11.35]”, for which the Kd in data set [4] (setting [10]) turned out to be 0.09 µM.
In [4] (2'-NH2 on all C and U, undetectable at 36 uM WGA monomer, p130 prints >4 uM), “GGGAAAAGCGAAUCAUACACAAGANNNNNNNNNNNNNNNNNNNNNNNNNNNNNNNNNNNNNNNNNNNNNNNNNNGCUCCGCCAGAGACCAACCGAGAA [50N9 random 2'-NH2 RNA]” returned a Kd above 4000 µM.
For “GGGAAAAGCGAAUCAUACACAAGAUUGGUCGUACUGGACAGAGCCGUGGUAGAGGGAUUGGGACAAAGUGUCAGCUCCGCCAGAGACCAACCGAGAA [WGA ligand 11.20]”, the dissociation constant (Kd) in [5] (2'-NH2 on all C and U, specificity control) was 11.2 µM.
On to “GGGAGACAAGAAAUAAACNCUCAAGCCCCAAACGCAAGUGAGCAUCCGCAACAGGGAAGAAGACAGAUGAAUGAUUCGACAGGAGGCUCACAACAGGC [PA466]”, for which, in data set [3] (2'-NH2 C and U, 37 C), the Kd was found to be 0.43 nM.
“GGGAGACAAGAAUAAACGCUCAAAAGGUGCCGGGUUGGAGGGGUAGCAAGAAAUGGCUAGGGCGCASGAUUCGACAGGNGGCUCACAACAGGC [PA339]” registered a Kd in data set [3] (2'-NH2 C and U, 37 C) of 13.5 nM.
Consider “GGGAGACAAGAAUAAACGCUCAAAUCAACUAAACAACGCAGUCACGAGAACGACCGGKCUGACUCCGAAAGUUCGACAGGAGGCUCACAACAGGC [PA448]”, for which the Kd in data set [3] (2'-NH2 on all C and U, 37 C) turned out to be 5 nM.
In turn, “GGGAGACAAGAAUAAACGCUCAACGAGUUCACAUGGGAGCAAUCUCCGAAUAAACAACACGCKAKCGCAAAUUCGACAGGAGGCUCACAACAGGC [PF424]” showed a Kd in data set [3] (2'-F C and U, HSMC, 37 C) of 0.0365 nM.
As to “GGGAGACAAGAAUAAACGCUCAAGUACRCAGUGAGCAGAAGCAGAGAGACUUGGGAUGGGAUGAAAUGGKCUUCGACAGGAGGCUCACAACAGGC [PA467]”, the equilibrium dissociation constant (Kd) in data set [3] (2'-NH2 C and U, 37 C) was 24 nM.
On the same count and under the same terms, then “GGGAGACAAGAAUAAACGCUCAANNNGAGGAAGGGCACGCAAGGAAACAAAACACAAAGCAGAAGUAGUAAGAUUCGACAGGAGGCUCACAACAGGC [PA465]”, with above 50 nM; and “GGGAGACAAGAAUAAACNCUCAACGAAAUAGAAGGAACAGAAGAAUGGBGAWGNGGGAAAUGGCAACGAAUUCGACAGGNGGCUCACAACAGGC [PA321]”, with 8 nM.
Sequence “GGGAGACAAGAAUAAACNCUCAAGCCCCAAGCAAGUGAGCAUCCGCAACAGGGAAGAAGACAGACGAGUGAUUCGACAGGAGGCUCACAACAGGC [PA473]” came in with a Kd in [3] (2'-NH2 C and U, 37 C) of 0.36 nM.
Consider “GGGAGGACGAUGCGGAAGUGAAGCUAAAGCGGAGGGCCAUUCAGUUUCNCACCACAGACGACUCGCCCGA [F14.2]”, for which the Kd in the data set with CD22beta (CD22b-Rg) (2'-NH2 C and U, <5% bound, 4 C) is above 20 µM; in data set [2] (2'-NH2 C and U, HSMC, 4 C) it was 1.9 µM; in [1] (2'-NH2 on all C and U, 4 C, 7.2 nM at room temp), 1.8 nM; in data set [3] (2'-NH2 C and U, HSMC, 4 C), 450 nM.
With “GGGAGGACGAUGCGGAAGUGAAGCUAAAGSGGAGGGCCACUCAGAAACGCACCACAGACGACUCGCCCGA [F14.13]”, the Kd in data set [1] (2'-NH2 C and U, 4 C, biphasic (0.74), low affinity 270 nM) was 1.3 nM.
For “GGGAGGACGAUGCGGACGUGUGUAUCRARUUUUCCGCUGUUUGUGCAGACGACUCGCCCGA [LF1718]”, in [6], the Kd was 0.0064 µM.
“GGGAGGACGAUGCGGAUAYUCAGCUYGUGUKUUUUCDAUCUUCCCCAGACGACUCGCCCGA [LF1707]” yielded a Kd in data set [6] of 0.00016 µM.
Regarding “GGGAGGACGAUGCGGCCGUACAUGGUAARCCUCGAAGGAUUCCCGGGAUGAUCCCCAGACGACUCGCCCGA [F14.27]”, the Kd in data set [1] (2'-NH2 C and U, HSMC, 4 C) came to 145 nM.
In turn, “GGGAGGACGAUGCGGGAGGAAUGGACWGCGUAUAUCGAGUUGCCUCAGACGACUCGCCCGA [LF1713]” returned a Kd in data set [6] (table prints SEQ 338) of 0.00022 µM.
For the sequence “GGGAGGACGAUGCGGNNNNNNNNNNNNNNNNNNNNNNNNNNNNNNNNNNNNNNNNCAGACGACUCGCCCGA [40N7 random 2'-NH2 RNA]”, the Kd in data set [1] (2'-NH2 on all C and U, random pool, estimate) was 10000 nM.
For “GGGAGGACGAUGCGGUAACAACAAUCAAGGCGGGUUYACCGCCCCAGUAUGAGUACAGACGACUCGCCCGA [F14.12]”, the Kd was 0.0013 µM in data set [7]; above 20 µM in the data set with CD22beta (CD22b-Rg) (2'-NH2 on all C and U, <5% bound at 660 nM protein); 0.047 µM in data set [2] (setting [11]); 0.06 nM in data set [1] (2'-NH2 on all C and U, 4 C, HSMC (Ca, Mg), Table 9 prints 5.8 pM (4 C), 1.7 nM room temp); 910 nM in data set [3] (setting [11]). Besides, the IC50 in [8] worked out at 0.01 µM.
On to “GGGAGGACGAUGCGGUCCAGAGCGUGAAGAUCAACGUCCCGGNGUCGAAGACAGACGACUCGCCCGA [F14.70]”, for which the dissociation constant (Kd) in the data set with CD22beta (CD22b-Rg) (2'-NH2 C and U, <5% bound, 4 C) is above 20 µM; in data set [2] (2'-NH2 C and U, HSMC, 4 C), 5.9 µM; in data set [1] (2'-NH2 on all C and U, 4 C, biphasic, fraction 0.75, second Kd 254 nM), 2 nM.
As to “GGGAGGACGAUGCGGUUAGCCUACACUCUAGGUUCAGUUUUCGAAUCUUCCACCGCWGACGACUCGCCCGA [LF1618]”, the Kd in [1] (2'-F on all C and U, 37 C) worked out at 9.6 nM.
